Measurements published in article PMC5342555, “ATAD2 is an epigenetic reader of newly synthesized histone marks during DNA replication” (Oncotarget, 2016).
One block for each molecule: values may come before it.

Legend:
[1] = tested on: HDAC1 binding to H4K5,12diac; test: In vitro competition with HDAC1 for immobilized H4K5,12diac peptides (direct binding pull down); conditions: increasing amount of ATAD2^342-1390 2 h, then 0.1 μM recombinant HDAC1 2 h; 1 μM immobilized peptide
Method: H4 peptides (1-25) conjugated with Biotin was immobilized on Streptavidin-coupled Dynabeads for 2 hours at 4 °C and incubated with nuclear extract from MCF7 cells. Nuclear extract was prepared by first isolating nucleus in hypotonic buffer (10 mM Tris-HCl pH 8.5, 10 mM NaCl, 0.5 mM TCEP and 0.1 % NP-40) and disrupting nuclear envelop in high salt buffer (20 mM Tris-HCl pH 8.5, 420 mM NaCl, 0.5 mM TCEP, 0.1 % Triton X-100, 25 % Glycerol) for 2 hours at 4 °C. Soluble nuclear extract was harvested by centrifugation at 20000 g for 20 min and diluted to 1:3 in buffer without NaCl in order to achieve physiological salt concentration, 140 mM. The nuclear extract was incubated with the immobilized peptides on the Streptavidin-Dynabeads overnight at 4 °C. Next day, the beads were washed three times with washing buffer (20 mM Tris-HCl pH 8.5, 140 mM NaCl, 0.5 mM TCEP, 0.1 % Triton X-100, 25 % Glycerol) and twice with high salt buffer. Bound proteins were recovered by boiling the beads in 1X sample buffer for 5 min. at 95 °C and analyzed by SDS-PAGE and Western Blotting. For direct binding experiments 1 μM of immobilized histone peptides on Streptavidin-Dynabeads were incubated with indicated amounts of ligands for 2 hours at 4 °C. After stringent washing as described above, bound proteins were analyzed in Western Blotting.

[2] = tested on: MCF7 cells; test: Fluorescence recovery after photobleaching (FRAP); format: cell-based; conditions: TagGFP-tagged ATAD2 in MCF7, FRAP, 20 images; mean ± SEM
Method: Immunofluorescence of cells were saved for whole cell extract and the rest was subjected for subsequent fractionation. Whole cell extract
Cells were grown on Matrigel-coated coverslips and was prepared by incubating cells in ice-cold RIPA buffer fixed in 4 % formaldehyde in PBS for 15 min at RT or in (25 mM Tris·HCl pH 7.6, 150 mM NaCl, 1 % NP-40, 1 100 % methanol for 7 min at -20 °C. After removing the % sodium deoxycholate, 0.1 % SDS) supplemented with residual FA or methanol by washing in PBS cells were protease inhibitor cocktail (Roche) for 10 min on ice and permeabilized in blocking solution (10 % goat serum sonicated at medium power, 0.5 intervals in BIORUPTOR and 0.3 % Triton X-100 in PBS) for 10 min at RT and for 3 min at 4 °C. Soluble lysate was recovered by incubated with primary antibodies in blocking solution. removing insoluble fractions after centrifugation at 20000 Following the removal of unbound antibodies by washing x g for 10 min 5 to 20 μg of lysates were used for SDS gel in PBS cells were incubated with secondary antibodies electrophoresis and Western blot. conjugated with Alexa Fluor 488, 555 or 647 (Invitrogen), washed and mounted on slides in presence of DAPI for Fluorescence recovery after photobleaching visualization of nucleus. Images were acquired using an (FRAP) inverted Zeiss LSM700 confocal microscope using a 488 nm Diode-Pumped Solid State Laser with a 63X, 1.3 N.A. FRAP experiment was performed as previously oil-immersion objective. For EdU labelling cells were described with minor modifications. […]
and fixed in 2 % FA for 10 min at RT. […] The image series were imported in Fiji and 100 % MeOH for 10 min at – 20 °C and incubated in average fluorescence was in the bleached region (F(t)ROI), stain buffer with 5 % normal goat serum for 10 min at the total cell nucleus (F(t)total) and a background (F(t)BG) RT for blocking. Then indirect staining was performed were determined. The relative fluorescence intensity

[3] = tested on: MCF7 cells; test: EdU incorporation (DNA replication) by flow cytometry; format: cell-based; conditions: MCF7 overexpressing tagGFP-tagged ATAD2, gated by tagGFP; mean ± SEM, n = 3 independent experiments
Method: informed consent was obtained (Indivumed, Hamburg, by incubating cells with primary antibodies for 1 h at Germany; Asterand, Detroit USA; Provitro Berlin, RT followed by labelling with secondary antibodies Germany) of different indications. Immunohistochemistry conjugated with Alexa488 or Alexa647 for 30 min at was performed using EnVision System-HRP (DAB) from RT in dark. For analysis of TagGFP-ATAD2 expressing Dako (K4006 and K4010). Prior to immunostaining the cells GFP was stained by GFP antibody to enhance the slides were deparaffinized and rehydrated in xylene and fluorescence signal. DNA was stained by DAPI at 1 μg/ graded ethanol to distilled water. Antigen was retrieved by ml for 10 min at RT. For EdU (5-ethynyl-2'-deoxyuridine) incubating the tissue in boiling Target Retrieval Solution labelling cells were incubated in 10 μM EdU for 2h at 37 pH 6.0 (Dako S2031) for 40 min and letting them cool °C prior to fixation and staining was carried out according […]
Peroxidase-Block for 15 min at RT the slides were washed Fluor® 647 Flow Cytometry Assay Kit, ThermoFisher). twice in washing buffer (PBS with 0.05 % Tween 20) and Cells were analyzed by flow cytometry using a BD LSR incubated with primary antibodies in Antibody-Diluent II. All imaging and quantifications were performed using […]
(Dako S2022) for 90 min at RT. […]
Immunofluorescence of cells were saved for whole cell extract and the rest was subjected for subsequent fractionation. Whole cell extract […]
and fixed in 2 % FA for 10 min at RT. […] The image series were imported in Fiji and 100 % MeOH for 10 min at – 20 °C and incubated in average fluorescence was in the bleached region (F(t)ROI), […]

competition with HDAC1 for binding to H4K5,12diac peptides [1]: outcompeted
B1: ATAD2^342-1390: recombinant FLAG-tagged ATAD2 residues 342 to 1390, purified from Sf9 cells (protein)
chain: SPYCKRMNRRRHAIHSSDSTSSSSSEDEQHFERRRKRSRNRAINRCLPLNFRKDELKGIYKDRMKIGASLADVDPMQLDSSVRFDSVGGLSNHIAALKEMVVFPLLYPEVFEKFKIQPPRGCLFYGPPGTGKTLVARALANECSQGDKRVAFFMRKGADCLSKWVGESERQLRLLFDQAYQMRPSIIFFDEIDGLAPVRSSRQDQIHSSIVSTLLALMDGLDSRGEIVVIGATNRLDSIDPALRRPGRFDREFLFSLPDKEARKEILKIHTRDWNPKPLDTFLEELAENCVGYCGADIKSICAEAALCALRRRYPQIYTTSEKLQLDLSSINISAKDFEVAMQKMIPASQRAVTSPGQALSTVVKPLLQNTVDKILEALQRVFPHAEFRTNKTLDSDISCPLLESDLAYSDDDVPSVYENGLSQKSSHKAKDNFNFLHLNRNACYQPMSFRPRILIVGEPGFGQGSHLAPAVIHALEKFTVYTLDIPVLFGVSTTSPEETCAQVIREAKRTAPSIVYVPHIHVWWEIVGPTLKATFTTLLQNIPSFAPVLLLATSDKPHSALPEEVQELFIRDYGEIFNVQLPDKEERTKFFEDLILKQAAKPPISKKKAVLQALEVLPVAPPPEPRSLTAEEVKRLEEQEEDTFRELRIFLRNVTHRLAIDKRFRVFTKPVDPDEVPDYVTVIKQPMDLSSVISKIDLHKYLTVKDYLRDIDLICSNALEYNPDRDPGDRLIRHRACALRDTAYAIIKEELDEDFEQLCEEIQESRKKRGCSSSKYAPSYYHVMPKQNSTLVGDKRSDPEQNEKLKTPSTPVACSTPAQLKRKIRKKSNWYLGTIKKRRKISQAKDDSQNAIDHKIESDTEETQDTSVDHNETGNTGESSVEENEKQQNASESKLELRNNSNTCNIENELEDSRKTTACTELRDKIACNGDASSSQIIHISDENEGKEMCVLRMTRARRSQVEQQQLITVEKALAILSQPTPSLVVDHERLKNLLKTVVKKSQNYNIFQLENLYAVISQCIYRHRKDHDKTSLIQKMEQEVENFSCSR

B2: BD mut: TagGFP-tagged BD mutant ATAD2 (V1013A, Y1021A, Y1063A, I1074A) expressed in MCF7 cells (protein, UniProt Q6PL18 1-1390, looked up, variant V1013A Y1021A Y1063A I1074A)
ATPase family AAA …: MVVLRSSLELHNHSAASATGSLDLSSDFLSLEHIGRRRLRSAGAAQKKPAATTAKAGDGSSVKEVETYHRTRALRSLRKDAQNSSDSSFEKNVEITEQLANGRHFTRQLARQQADKKKEEHREDKVIPVTRSLRARNIVQSTEHLHEDNGDVEVRRSCRIRSRYSGVNQSMLFDKLITNTAEAVLQKMDDMKKMRRQRMRELEDLGVFNETEESNLNMYTRGKQKDIQRTDEETTDNQEGSVESSEEGEDQEHEDDGEDEDDEDDDDDDDDDDDDDDEDDEDEEDGEEENQKRYYLRQRKATVYYQAPLEKPRHQRKPNIFYSGPASPARPRYRLSSAGPRSPYCKRMNRRRHAIHSSDSTSSSSSEDEQHFERRRKRSRNRAINRCLPLNFRKDELKGIYKDRMKIGASLADVDPMQLDSSVRFDSVGGLSNHIAALKEMVVFPLLYPEVFEKFKIQPPRGCLFYGPPGTGKTLVARALANECSQGDKRVAFFMRKGADCLSKWVGESERQLRLLFDQAYQMRPSIIFFDEIDGLAPVRSSRQDQIHSSIVSTLLALMDGLDSRGEIVVIGATNRLDSIDPALRRPGRFDREFLFSLPDKEARKEILKIHTRDWNPKPLDTFLEELAENCVGYCGADIKSICAEAALCALRRRYPQIYTTSEKLQLDLSSINISAKDFEVAMQKMIPASQRAVTSPGQALSTVVKPLLQNTVDKILEALQRVFPHAEFRTNKTLDSDISCPLLESDLAYSDDDVPSVYENGLSQKSSHKAKDNFNFLHLNRNACYQPMSFRPRILIVGEPGFGQGSHLAPAVIHALEKFTVYTLDIPVLFGVSTTSPEETCAQVIREAKRTAPSIVYVPHIHVWWEIVGPTLKATFTTLLQNIPSFAPVLLLATSDKPHSALPEEVQELFIRDYGEIFNVQLPDKEERTKFFEDLILKQAAKPPISKKKAVLQALEVLPVAPPPEPRSLTAEEVKRLEEQEEDTFRELRIFLRNVTHRLAIDKRFRVFTKPADPDEVPDAVTVIKQPMDLSSVISKIDLHKYLTVKDYLRDIDLICSNALEANPDRDPGDRLARHRACALRDTAYAIIKEELDEDFEQLCEEIQESRKKRGCSSSKYAPSYYHVMPKQNSTLVGDKRSDPEQNEKLKTPSTPVACSTPAQLKRKIRKKSNWYLGTIKKRRKISQAKDDSQNAIDHKIESDTEETQDTSVDHNETGNTGESSVEENEKQQNASESKLELRNNSNTCNIENELEDSRKTTACTELRDKIACNGDASSSQIIHISDENEGKEMCVLRMTRARRSQVEQQQLITVEKALAILSQPTPSLVVDHERLKNLLKTVVKKSQNYNIFQLENLYAVISQCIYRHRKDHDKTSLIQKMEQEVENFSCSR
modifications: TagGFP tag
notes: TagGFP-tagged BD mutant ATAD2 (V1013A, Y1021A, Y1063A, I1074A) expressed in MCF7 cells
half recovery time (recovery t1/2) [2]: 7.951 s
EdU incorporation (normalized to control) [3]: 0.5 ± 0.10
